# Test results: the supplement of paper PMC5998384
# How the values were obtained:
# HeLa Kyoto [1] = assay: solubility change mitosis vs G1/S (difference of NP-40 vs SDS log2 ratios) (log2 ratio difference); higher = more soluble in mitosis
# HeLa Kyoto [2] = assay: solubility in G1/S (NP-40 vs SDS abundance) (log2 ratio); higher = more soluble; conditions: cell cycle stage: G1/S
# 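Throughout, for solubility change mitosis vs G1/S (difference of NP-40 vs SDS log2 ratios): synchronized HeLa Kyoto cells (double thymidine block for G1/S, nocodazole release for mitosis), protein amounts in NP-40 versus SDS lysates quantified by mass spectrometry, three biological replicates.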
# 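Throughout, for solubility in G1/S (NP-40 vs SDS abundance): HeLa Kyoto cells arrested at G1/S by double thymidine block, proteins quantified by TMT10plex mass spectrometry in mild NP-40 versus SDS extracts, three biological replicates.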
Sequence,solubility change mitosis (log2) (HeLa Kyoto [1]),solubility in G1/S (log2) (HeLa Kyoto [2])
MRSRVLWGAARWLWPRRAVGPARRPLSSGSPPLEELFTRGGPLRTFLERQAGSEAHLKVRRPELLAVIKLLNEKERELRETEHLLHDENEDLRKLAENEITLCQKEITQLKHQIILLLVPSEETDENDLILEVTAGVGGQEAMLFTSEIFDMYQQYAAFKRWHFETLEYFPSELGGLRHASASIGGSEAYRHMKFEGGVHRVQRVPKTEKQGRVHTSTMTVAILPQPTEINLVINPKDLRIDTKRASGAGGQHVNTTDSAVRIVHLPTGVVSECQQERSQLKNKELAMTKLRAKLYSMHLEEEINKRQNARKIQIGSKGRSEKIRTYNFPQNRVTDHRINKTLHDLETFMQGDYLLDELVQSLKEYADYESLVEIISQKV [MTRF1L],0.288,-0.0262
MSAAGAGAGVEAGFSSEELLSLRFPLHRACRDGDLATLCSLLQQTPHAHLASEDSFYGWTPVHWAAHFGKLECLVQLVRAGATLNVSTTRYAQTPAHIAAFGGHPQCLVWLIQAGANINKPDCEGETPIHKAARSGSLECISALVANGAHVDLRNASGLTAADIAQTQGFQECAQFLLNLQNCHLNHFYNNGILNGGHQNVFPNHISVGTNRKRCLEDSEDFGVKKARTEAQSLDSAVPLTNGDTEDDADKMHVDREFAVVTDMKNSSSVSNTLTNGCVINGHLDFPSTTPLSGMESRNGQCLTGTNGISSGLAPGQPFPSSQGSLCISGTEEPEKTLRANPELCGSLHLNGSPSSCIASRPSWVEDIGDNLYYGHYHGFGDTAESIPELNSVVEHSKSVKVQERYDSAVLGTMHLHHGS [ANKRD10],0.112,0.0215
MSANEDQEMELEALRSIYEGDESFRELSPVSFQYRIGENGDPKAFLIEISWTETYPQTPPILSMNAFFNNTISSAVKQSILAKLQEAVEANLGTAMTYTLFEYAKDNKEQFMENHNPINSATSISNIISIETPNTAPSSKKKDKKEQLSKAQKRKLADKTDHKGELPRGWNWVDVVKHLSKTGSKDDE [RWDD4],0.301,0.234
MSAQTSPAEKGLNPGLMCQESYACSGTDEAIFECDECCSLQCLRCEEELHRQERLRNHERIRLKPGHVPYCDLCKGLSGHLPGVRQRAIVRCQTCKINLCLECQKRTHSGGNKRRHPVTVYNVSNLQESLEAEEMDEETKRKKMTEKVVSFLLVDENEEIQVTNEEDFIRKLDCKPDQHLKVVSIFGNTGDGKSHTLNHTFFYGREVFKTSPTQESCTVGVWAAYDPVHKVAVIDTEGLLGATVNLSQRTRLLLKVLAISDLVIYRTHADRLHNDLFKFLGDASEAYLKHFTKELKATTARCGLDVPLSTLGPAVIIFHETVHTQLLGSDHPSEVPEKLIQDRFRKLGRFPEAFSSIHYKGTRTYNPPTDFSGLRRALEQLLENNTTRSPRHPGVIFKALKALSDRFSGEIPDDQMAHSSFFPDEYFTCSSLCLSCGVGCKKSMNHGKEGVPHEAKSRCRYSHQYDNRVYTCKACYERGEEVSVVPKTSASTDSPWMGLAKYAWSGYVIECPNCGVVYRSRQYWFGNQDPVDTVVRTEIVHVWPGTDGFLKDNNNAAQRLLDGMNFMAQSVSELSLGPTKAVTSWLTDQIAPAYWRPNSQILSCNKCATSFKDNDTKHHCRACGEGFCDSCSSKTRPVPERGWGPAPVRVCDNCYEARNVQLAVTEAQVDDEGGTLIARKVGEAVQNTLGAVVTAIDIPLGLVKDAARPAYWVPDHEILHCHNCRKEFSIKLSKHHCRACGQGFCDECSHDRRAVPSRGWDHPVRVCFNCNKKPGDL [ZFYVE1],-0.0704,-0.282
MSELSDEASEPELLNRSLSMWHGLGTQVSGEELDVPLDLHTAASIGQYEVVKECVQRRELDLNKKNGGGWTPLMYASYIGHDTIVHLLLEAGVSVNVPTPEGQTPLMLASSCGNESIAYFLLQQGAELEMKDIQGWTALFHCTSAGHQHMVRFLLDSGANANVREPICGFTPLMEAAAAGHEIIVQYFLNHGVKVDARDHSGATARMLAKQYGHMKIVALMDTYSPSLPKSLYRSPEKYEDLSSSDESCPAPQRQRPCRKKGVSIHEGPRALARITGIGLGGRAPRPRYEQAPPRGYVTFNSSGENPLEEEGLCCRDVTSPINERDVESSSSSSSREEHAFCANLGPVQSSSSSEGLARAQGLSSEASVESNEDSDHACKSSARKQAKSYMKTKNPDSQWPPRAATDREGFLAESSPQTQRAPYSGPQDLAALLEQIGCLKYLQVFEEQDVDLRIFLTLTESDLKEIGITLFGPKRKMTSAIARWHSSARPPGDALELAYADRLEAEMQELAIQLHKRCEEVEATRGQVCQEQELRAVVESCLLEQDRAREDLQARLRETWALARDAALVLDQLRACQAELSSRVRQDQPPGAATLGLAVPPADSKGWQASLQAMSLPELSGALEDRVREMGQALCLVTQSLEKLQVLNGKKWRET [ANKS3],0.0304,-0.0739
MSENNKNSLESSLRQLKCHFTWNLMEGENSLDDFEDKVFYRTEFQNREFKATMCNLLAYLKHLKGQNEAALECLRKAEELIQQEHADQAEIRSLVTWGNYAWVYYHMGRLSDVQIYVDKVKHVCEKFSSPYRIESPELDCEEGWTRLKCGGNQNERAKVCFEKALEKKPKNPEFTSGLAIASYRLDNWPPSQNAIDPLRQAIRLNPDNQYLKVLLALKLHKMREEGEEEGEGEKLVEEALEKAPGVTDVLRSAAKFYRRKDEPDKAIELLKKALEYIPNNAYLHCQIGCCYRAKVFQVMNLRENGMYGKRKLLELIGHAVAHLKKADEANDNLFRVCSILASLHALADQYEDAEYYFQKEFSKELTPVAKQLLHLRYGNFQLYQMKCEDKAIHHFIEGVKINQKSREKEKMKDKLQKIAKMRLSKNGADSEALHVLAFLQELNEKMQQADEDSERGLESGSLIPSASSWNGE [IFIT2],-0.2,0.432
MSETDHIASTSSDKNVGKTPELKEDSCNLFSGNESSKLENESKLLSLNTDKTLCQPNEHNNRIEAQENYIPDHGGGEDSCAKTDTGSENSEQIANFPSGNFAKHISKTNETEQKVTQILVELRSSTFPESANEKTYSESPYDTDCTKKFISKIKSVSASEDLLEEIESELLSTEFAEHRVPNGMNKGEHALVLFEKCVQDKYLQQEHIIKKLIKENKKHQELFVDICSEKDNLREELKKRTETEKQHMNTIKQLESRIEELNKEVKASRDQLIAQDVTAKNAVQQLHKEMAQRMEQANKKCEEARQEKEAMVMKYVRGEKESLDLRKEKETLEKKLRDANKELEKNTNKIKQLSQEKGRLHQLYETKEGETTRLIREIDKLKEDINSHVIKVKWAQNKLKAEMDSHKETKDKLKETTTKLTQAKEEADQIRKNCQDMIKTYQESEEIKSNELDAKLRVTKGELEKQMQEKSDQLEMHHAKIKELEDLKRTFKEGMDELRTLRTKVKCLEDERLRTEDELSKYKEIINRQKAEIQNLLDKVKTADQLQEQLQRGKQEIENLKEEVESLNSLINDLQKDIEGSRKRESELLLFTERLTSKNAQLQSESNSLQSQFDKVSCSESQLQSQCEQMKQTNINLESRLLKEEELRKEEVQTLQAELACRQTEVKALSTQVEELKDELVTQRRKHASSIKDLTKQLQQARRKLDQVESGSYDKEVSSMGSRSSSSGSLNARSSAEDRSPENTGSSVAVDNFPQVDKAMLIERIVRLQKAHARKNEKIEFMEDHIKQLVEEIRKKTKIIQSYILREESGTLSSEASDFNKVHLSRRGGIMASLYTSHPADNGLTLELSLEINRKLQAVLEDTLLKNITLKENLQTLGTEIERLIKHQHELEQRTKKT [CCDC186],0.000436,0.232
